Drawing on patent publication CN109810195A (INST OF HEMATOLOGY BLOOD DISEASES HOSPITAL OF CHINESE …, dated 2019), this text covers Kd for 1 molecule.

In the test the target is T1, 人CD123蛋白 (白细胞介素3受体α链, IL3RA) (human, UniProt P26951 19-378).
T1 construct: whole, on cells
Description: FACS, PE-labelled 13C3 titrated (200nM to 0.003nM) on 3T3 cells transfected with CD123; Kd fitted in GraphPad Prism 5. In general terms: In flow cytometry, cells or beads pass a laser one at a time.

T1 sequence (P26951 19-378): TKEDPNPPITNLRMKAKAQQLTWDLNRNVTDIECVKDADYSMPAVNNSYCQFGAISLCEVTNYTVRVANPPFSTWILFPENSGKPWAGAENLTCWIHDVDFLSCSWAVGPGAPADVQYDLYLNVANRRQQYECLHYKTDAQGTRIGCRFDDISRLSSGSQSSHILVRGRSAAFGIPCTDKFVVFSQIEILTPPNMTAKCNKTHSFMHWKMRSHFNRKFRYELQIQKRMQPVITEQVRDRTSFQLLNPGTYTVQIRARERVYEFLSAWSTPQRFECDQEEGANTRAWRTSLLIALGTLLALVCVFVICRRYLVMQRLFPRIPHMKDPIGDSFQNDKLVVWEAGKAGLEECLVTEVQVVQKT

B1: 鼠抗人CD123单克隆抗体13C3 (antibody, V domains shown)
VH: QVQLQESGPGILQPSQTLTLTCSFSGFSLSTSGMGVGWIRQPSGKGLEWLAHIWWDDDKRYKPALKSRLTISKDTSSNQVFLKIASVDTADAATYYCARMGGGNYLFLYAMDFWGQGTSVTVSA
VL: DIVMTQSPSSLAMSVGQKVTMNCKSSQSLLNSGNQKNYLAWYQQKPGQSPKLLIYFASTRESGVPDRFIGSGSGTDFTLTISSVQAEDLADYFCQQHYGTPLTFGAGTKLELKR
notes: PE-labelled purified antibody in the Kd assay and on patient samples; also called 抗CD123单克隆抗体13C3; 杂交瘤细胞株13C3 (CGMCC No.16699) 产生的抗体
Broadly, the Kd is the concentration at which binding is half-saturated. Molecule B1 came in with an equilibrium dissociation constant (Kd) of 3.67 nM.
